# Experimental data: the supplement of paper PMC10567573
# B1: HSP90AB1 (parent)
# chain: YHTSQSGDEMTSLSEYVSRMKETQ
# B2: INTS3 (parent)
# chain: EEITEESLEESVGKPLYLIFRNLC
# Variants of: B1
# Assay: protein stability index of a GFP-peptide fusion (GPS, HEK-293T) (PSI 1-6); higher = more stable
# Conditions: c terminus: a fixed tail appended
# 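Note: lentivirally expressed fusions sorted by FACS into six bins by GFP to DsRed ratio, PSI derived from sequencing read proportions per bin multiplied by bin number.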
row,Variant,protein stability index
1,Y1C,4.49
2,Y1D,4.48
3,Y1A,4.7

# Variants of: B2
# Assay: as above
# Conditions: c terminus: a fixed tail appended
row,Variant,protein stability index
1,K14H,3.2
2,K14V,2.6
3,K14R,3.31
4,K14S,2.94
5,K14N,3.52
6,K14I,2.78
7,K14A,2.96
8,K14E,3.54
9,K14Y,2.47
10,K14T,3.38
11,K14D,3.48
12,K14C,3.5
13,K14P,3.67
14,K14F,2.25
15,K14M,2.48
16,K14L,3.3
17,K14Q,3.19
18,K14W,2.39
19,K14G,2.96
20,G13Q,3.11
21,G13V,1.98
22,G13N,2.64
23,G13C,2.37
24,G13Y,2.14

row,Variant,protein stability index
1,G13A,2.88
2,G13P,3.31
3,G13S,2.36
4,G13T,2.46
5,G13W,1.79
6,G13D,2.88
7,G13E,3.12
8,G13I,1.81
9,G13K,2.44
10,G13F,2.28
11,G13R,2.7
12,G13L,2.23
13,G13H,2.23
14,G13M,2.5
15,E10Q,2.67
16,E10K,2.5
17,E10C,1.96
18,E10H,2.25
19,E10P,2.36
20,E10S,2.79
21,E10M,2.24
22,E10T,2.55
23,E10Y,2.23
24,E10A,2.64

row,Variant,protein stability index
1,E10D,3.09
2,E10W,2.21
3,E10I,1.77
4,E10R,2.24
5,E10F,1.92
6,E10N,2.78
7,E10G,2.82
8,E10L,2.07
9,E10V,2.09
10,Y17M,2.85
11,Y17Q,2.92
12,Y17K,4.07
13,Y17G,3.59
14,Y17V,2.68
15,Y17S,2.85
16,Y17R,2.61
17,Y17P,4.11
18,Y17L,2.28
19,Y17H,3.69
20,Y17D,4.25
21,Y17F,2.73
22,Y17W,2.84
23,Y17T,3.22
24,Y17C,3.12

row,Variant,protein stability index
1,Y17A,3.32
2,Y17I,2.62
3,Y17N,3.46
4,Y17E,3.33
5,L23H,3.19
6,L23M,2.74
7,L23E,3.98
8,L23I,2.63
9,L23C,3.54
10,L23A,3.74
11,L23R,3.47
12,L23Y,2.68
13,L23T,3.4
14,L23Q,4.17
15,L23W,2.85
16,L23P,3.82
17,L23G,3.62
18,L23F,3.14
19,L23N,3.47
20,L23V,3.39
21,L23S,3.67
22,L23D,3.75
23,L23K,4.52
24,L18W,2.16

row,Variant,protein stability index
1,L18V,2.7
2,L18H,3.4
3,L18F,2.3
4,L18E,3.12
5,L18P,3.69
6,L18D,3.35
7,L18T,3.37
8,L18A,2.92
9,L18Y,2.93
10,L18R,2.82
11,L18I,2.72
12,L18G,3.71
13,L18N,3.38
14,L18K,3.1
15,L18M,3.38
16,L18Q,3.21
17,L18C,2.7
18,L18S,3.37
19,E9D,2.77
20,E9T,2.54
21,E9A,2.97
22,E9P,2.18
23,E9M,2.28
24,E9Q,2.44

row,Variant,protein stability index
1,E9L,2.93
2,E9H,2.35
3,E9S,2.3
4,E9N,2.3
5,E9F,2.05
6,E9G,2.72
7,E9V,2.14
8,E9K,2.5
9,E9I,2.14
10,E9W,2.09
11,E9C,2.25
12,E9Y,1.96
13,E9R,2.41
14,L8E,3.2
15,L8M,2.86
16,L8N,3.34
17,L8R,3.09
18,L8K,3.42
19,L8C,3.3
20,L8F,2.57
21,L8H,3.26
22,L8Y,2.97
23,L8A,3.46
24,L8W,1.95

row,Variant,protein stability index
1,L8D,3.35
2,L8G,3.21
3,L8I,2.47
4,L8Q,3.32
5,L8T,3.42
6,L8S,3.48
7,L8V,3.15
8,L8P,3.11
9,C24A,2.87
10,C24D,3.48
11,C24T,2.66
12,C24R,3.02
13,C24F,2.99
14,C24M,2.7
15,C24V,1.68
16,C24G,2.54
17,C24L,2.16
18,C24Q,2.19
19,C24K,3.11
20,C24E,3.54
21,C24W,2.08
22,C24I,2.32
23,C24S,2.55
24,C24Y,2.32

row,Variant,protein stability index
1,C24H,2.88
2,C24P,2.62
3,C24N,3.33
4,F20H,3.46
5,F20P,4.07
6,F20L,2.37
7,F20I,2.88
8,F20E,3.53
9,F20G,4.07
10,F20D,4.48
11,F20V,2.55
12,F20N,4.33
13,F20K,4.46
14,F20Y,2.71
15,F20Q,3.97
16,F20R,4.23
17,F20S,3.77
18,F20M,3.1
19,F20T,3.6
20,F20C,3.32
21,F20W,2.35
22,F20A,2.82
23,R21Q,2.77
24,R21V,2.09

row,Variant,protein stability index
1,R21S,2.95
2,R21L,1.9
3,R21G,3.1
4,R21H,3.08
5,R21A,2.77
6,R21D,3.46
7,R21K,2.61
8,R21T,2.61
9,R21W,2.1
10,R21N,2.96
11,R21M,2.1
12,R21C,2.62
13,R21Y,2.03
14,R21F,2.03
15,R21P,3.53
16,R21I,1.63
17,R21E,2.64
18,N22M,2.33
19,N22G,2.19
20,N22Y,2.06
21,N22F,2.94
22,N22V,1.55
23,N22R,2.96
24,N22Q,2.42

row,Variant,protein stability index
1,N22C,2.83
2,N22P,2.54
3,N22D,3.4
4,N22T,2.15
5,N22L,3.01
6,N22I,2.05
7,N22A,2.26
8,N22W,1.68
9,N22H,2.64
10,N22S,2.79
11,N22E,2.8
12,N22K,2.56
13,P15H,2.24
14,P15S,2.02
15,P15A,1.25
16,P15F,1.97
17,P15D,3.32
18,P15M,2
19,P15E,2.14
20,P15I,2.17
21,P15N,2.29
22,P15W,2.06
23,P15T,2.06
24,P15K,1.93

row,Variant,protein stability index
1,P15L,1.85
2,P15Y,1.74
3,P15Q,1.52
4,P15V,1.77
5,P15C,2.05
6,P15G,2
7,P15R,2.12
8,L16G,3.38
9,L16S,3.29
10,L16N,3.62
11,L16F,3.35
12,L16A,2.99
13,L16E,3.26
14,L16W,2.41
15,L16C,2.68
16,L16V,2.93
17,L16T,3.23
18,L16M,2.92
19,L16D,4.26
20,L16Q,3.69
21,L16K,3.39
22,L16R,3.38
23,L16I,2.56
24,L16P,3.52

row,Variant,protein stability index
1,L16Y,2.78
2,L16H,3.09
3,S11C,2.34
4,S11I,2.52
5,S11D,3.03
6,S11P,2.36
7,S11K,2.61
8,S11L,2.51
9,S11Q,3.33
10,S11W,2.4
11,S11R,2.71
12,S11T,2.79
13,S11E,2.55
14,S11Y,2.58
15,S11F,2.57
16,S11N,2.96
17,S11V,2.32
18,S11G,2.9
19,S11M,2.8
20,S11H,2.56
21,S11A,2.57
22,V12K,3.54
23,V12L,2.5
24,V12Q,3.34

row,Variant,protein stability index
1,V12P,2.94
2,V12C,2.55
3,V12S,3.54
4,V12N,2.95
5,V12G,3.12
6,V12T,3.13
7,V12D,3.63
8,V12Y,2.36
9,V12W,2.47
10,V12E,3.36
11,V12M,2.26
12,V12I,2.51
13,V12A,3.26
14,V12F,2.56
15,V12H,3.28
16,V12R,2.86
17,S7V,3.02
18,S7P,3.02
19,S7Y,2.15
20,S7N,2.98
21,S7Q,2.83
22,S7R,2.98
23,S7W,2.46
24,S7T,3.13

row,Variant,protein stability index
1,I19C,3.62
2,I19Y,2.75
3,I19Q,4
4,I19F,2.3
5,I19P,4.17
6,I19G,3.67
7,I19K,3.66
8,I19N,3.92
9,I19A,3.73
10,I19M,3.06
11,I19W,2.91
12,I19D,3.89
13,I19V,3.16
14,I19H,3.85
15,I19E,3.9
16,I19S,3.33
17,I19L,2.86
18,I19R,3.7
19,I19T,3.41
